Source: patent publication US20110034396A1

Key:
Assay in all cases: cell-based or functional assay
[1] = target: bovine serum albumin (bovine) (UniProt P02769)
collagen type IV = target: collagen type IV
fibronectin = target: fibronectin

UniProt P02769, sequence (P02769 25-607 limits assumed): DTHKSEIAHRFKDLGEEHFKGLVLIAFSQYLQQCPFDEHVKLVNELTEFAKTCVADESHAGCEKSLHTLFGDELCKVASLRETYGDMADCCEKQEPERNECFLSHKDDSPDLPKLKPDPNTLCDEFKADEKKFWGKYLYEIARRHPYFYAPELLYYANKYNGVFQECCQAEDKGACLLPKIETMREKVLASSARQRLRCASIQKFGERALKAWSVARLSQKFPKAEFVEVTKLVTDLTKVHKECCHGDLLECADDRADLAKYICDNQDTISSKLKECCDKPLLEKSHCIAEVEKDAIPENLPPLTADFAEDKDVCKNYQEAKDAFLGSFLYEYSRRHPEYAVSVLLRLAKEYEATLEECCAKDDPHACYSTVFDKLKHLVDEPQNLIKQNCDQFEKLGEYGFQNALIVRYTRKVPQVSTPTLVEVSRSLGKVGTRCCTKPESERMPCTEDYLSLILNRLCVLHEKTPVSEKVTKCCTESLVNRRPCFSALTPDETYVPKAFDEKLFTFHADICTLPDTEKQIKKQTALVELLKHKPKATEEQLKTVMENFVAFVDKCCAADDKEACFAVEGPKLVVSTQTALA

IC50 of saratin inhibition of MCP-1-induced human monocyte migration through filters coated with 1 mg/mL BSA (Boyden chamber) [1]: 37 nM | Saratin IC50, MCP-1-induced human monocyte migration through filters coated with BSA, coating conc. 1.0 as the table prints it (the text gives 1.1 nM for 0.01 mg/mL BSA) (Boyden chamber) [1]: 1.1 nM | Saratin IC50, MIP-1alpha-induced human T lymphocyte migration through filters coated with BSA, coating conc. 1.0 (Boyden chamber) [1]: 185 nM | Saratin IC50, MCP-1-induced human monocyte migration through filters coated with Collagen IV, coating conc. 0.01 (Boyden chamber) (collagen type IV): 0.172 nM | Saratin IC50, MCP-1-induced human monocyte migration through filters coated with Collagen IV, coating conc. 1.0 (Boyden chamber) (collagen type IV): 0.0623 nM | Saratin IC50, MIP-1alpha-induced human T lymphocyte migration through filters coated with Collagen IV, coating conc. 0.01 (Boyden chamber) (collagen type IV): 6.86 nM | Saratin IC50, MIP-1alpha-induced human T lymphocyte migration through filters coated with Collagen IV, coating conc. 1.0 (Boyden chamber) (collagen type IV): 0.0079 nM | Saratin IC50, MCP-1-induced human monocyte migration through filters coated with Fibronectin, coating conc. 1.0 (Boyden chamber) (fibronectin): 19.4 nM | Saratin IC50, MIP-1alpha-induced human T lymphocyte migration through filters coated with Fibronectin, coating conc. 1.0 (Boyden chamber) (fibronectin): 3.69 nM
B1: saratin (protein)
chain: EEREDCWTFYANRKYTDFDKSFKKSSDLDECKKTCFKTEYCYIVFEDTVNKECYYNVVDGEELDQEKFVVDENFTENYLTDCEGKDAGNAAGTGDESDEVDED
